B1: mRNA-splicing (parent)
chain: AGUUGCUGCUGGGAGCUCCAGCACAGUGAAAUGGACAGAAGGGCAGAGCAA

Variants of: B1
Assay: exon inclusion enrichment index; higher = more inclusion; WT1 exon 5 minigene, HEK293

Variant | exon inclusion enrichment index
C6A U7A C9A U10A C36A A37U | 0.229
C6A U7A C9A U10A C36A A37G | 0.204
G5U G8U C9U U10G G11A | 0.429
G5U G8U C9U U10G G11C | 0.742
G5U G8U C9U U10G G11U | 0.498
G5U G8U C9U U10A G11C | 0.155
G5U G8U C9U U10A G11A | 0.0324
G5U G8U C9U U10A G11U | 0.0867
C6A U7A C9A U10A A47G | 0.13
C6A U7A C9A U10A A47C | 1.15
C6A U7A C9A U10A A47U | 0.546
C6A U7A C9A U10A A40U G41A | 0.0256
C6A U7A C9A U10A A40U G41C | 1.33
C6A U7A C9A U10A A40U G41U | 0.373
C6A U7A C9A U10A C18U | 0.387
C6A U7A C9A U10A C18A | 0.411
C6A U7A C9A U10A C18G | 0.561
C6A U7A C9A U10A A31G U32G | 0.383
C6A U7A C9A U10A A31G U32A | 2.95
C6A U7A C9A U10A A31G U32C | 2.27
G5U G8U C9U U27A G28U | 0.0328

Variant | exon inclusion enrichment index
G5U G8U C9U U27A G28A | 0.173
G5U G8U C9U U27A G28C | 0.109
C6A U7A C9A U10A A29U | 0.131
C6A U7A C9A U10A A29G | 1.06
C6A U7A C9A U10A A29C | 0.513
C6A U7A C9A U10A A30G A31G | 0.168
C6A U7A C9A U10A A30G A31U | 0.133
C6A U7A C9A U10A A30G A31C | 0.0339
G5U G8U C9U U32G G33U | 0.0291
G5U G8U C9U U32G G33C | 0.0926
G5U G8U C9U U32G G33A | 0.0116
C6A U7A C9A U10A C19A A20G | 0.0532
C6A U7A C9A U10A C19A A20U | 0.195
C6A U7A C9A U10A C19A A20C | 0.41
C6A U7A C9A U10A A29G A30U | 0.163
C6A U7A C9A U10A A29G A30C | 0.273
C6A U7A C9A U10A A29G A30G | 0.495
G5U U7G G8U C9U | 0.893
G5U G8U C9U U27C G28A | 0.135
G5U G8U C9U U27C G28C | 0.257
G5U G8U C9U U27C G28U | 0.0729

Variant | exon inclusion enrichment index
C6A U7A C9A U10A A20G G21A | 1.2
C6A U7A C9A U10A A20G G21U | 0.779
C6A U7A C9A U10A A20G G21C | 0.891
G5U G8U C9U U27G G28A | 0.148
G5U G8U C9U U27G G28U | 0.000678
G5U G8U C9U U27G G28C | 0.027
C6A U7A C9A U10A A47C G48U | 0.811
C6A U7A C9A U10A A47C G48C | 0.797
C6A U7A C9A U10A A47C G48A | 0.547
C6A U7A C9A U10A A47U G48U | 0.748
C6A U7A C9A U10A A47U G48C | 0.497
C6A U7A C9A U10A A47U G48A | 0.579
C6A G8U C9U | 0.134
C6A U7A C9A U10A A31G | 1.04
C6A U7A C9A U10A A31U | 0.592
C6A U7A C9A U10A A31C | 0.898
G5U U7A G8U C9U | 0.343
G5U U7A G8U C9A | 0.367
C6A U7A C9A U10A C18G C19U | 0.076
C6A U7A C9A U10A C18G C19A | 0.924
C6A U7A C9A U10A C18G C19G | 0.718

Variant | exon inclusion enrichment index
C6A U7A C9A U10A A45C G46C | 0.542
C6A U7A C9A U10A A45C G46U | 0.191
C6A U7A C9A U10A A45C G46A | 0.367
G5U U7G G8A C9U | 1.04
C6A U7A C9A U10A C19U A20G | 0.121
C6A U7A C9A U10A C19U A20U | 0.19
C6A U7A C9A U10A C19U A20C | 0.579
G5U U7C G8C C9U | 0.364
C6A U7A C9A U10A A37U G38U | 0.112
C6A U7A C9A U10A A37U G38C | 0.667
C6A U7A C9A U10A A37U G38A | 0.258
C6A U7A C9A U10A C22U | 0.414
C6A U7A C9A U10A C22G | 0.964
C6A U7A C9A U10A C22A | 0.593
C6A U7A C9A U10A A30U | 0.433
C6A U7A C9A U10A A30C | 0.809
C6A U7A C9A U10A A30G | 0.658
G5U U7C U10C | 3.02
C6A U7A C9A U10A C16U U17C | 0.225
C6A U7A C9A U10A C16U U17G | 0.212
C6A U7A C9A U10A C16U U17A | 0.291
